From the supplement of paper PMC9170038

Tested on: MS2 coat protein
Experiment: apparent KD of MS2 coat protein; designed switch direction (-1 OFF switch, 1 ON switch): 1; higher = weaker reporter binding
Method in brief: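 The buffer was Tris-HCl pH 7.5 with KCl, MgCl2, BSA, DTT, tRNA and Tween-20. In it, SNAP-549-labelled MS2 coat protein was titrated in doubling steps from 0.7 or 1.5 nM to 3 µM over chip-bound RNA switches transcribed by stalled E. coli RNA polymerase on Illumina chips. Apparent KD is the per-design median over clusters of curve fits to normalised fluorescence.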

[1] = input ligand: microRNA oligo, concentration not stated
[2] = Eterna round: R95, input ligand: FMN 200 uM
[3] = Eterna round: R95, input ligand: microRNA oligo, concentration not stated
[4] = Eterna round: R95, input ligand: none

Row | Sequence | apparent KD of MS2 coat protein (input ligand: FMN 200 uM) | apparent KD of MS2 coat protein [1] | apparent KD of MS2 coat protein (input ligand: none) | apparent KD of MS2 coat protein [2] | apparent KD of MS2 coat protein [3] | apparent KD of MS2 coat protein [4]
1 | AGAUCAUGACGAGGAUAUGGUACAUGAGGAUCACCCAUGUAUGUACUAUAAUCCGAAUGAGGAAUCCAGAAGGCGUCGUGGUCA [JL SSNG2 1.14] (Eterna round: R96, puzzle: Same State NG 2) | 44.9 nM | 94.1 nM | 145 nM |  |  | 
2 | AGCAUACAUGAGGAUCACCCAUGUCAACUUAGUCGAGGAUAUGGGCAGCCCUGAGGCGAACCAGAAGGCGAAUUGA [Mat - Same State 1 - Mod of JL - D1] (puzzle: Same State 1) |  |  |  | 28.3 nM | 51.5 nM | 66.1 nM
3 | AGCCGAAGCGCAGGAUAUACAUGUAUACAUGAGGAUCACCCAUGUAGCAACACGUGGUAGUGAUUGUAGAAGGGUGCUCGGCGC [Omei SS(NG)2 Cv15] (Eterna round: R96, puzzle: Same State NG 2) |  | 18.6 nM |  |  |  | 
4 | AGCUAUUAAUCAGGAUAUGGUCACAUGAGGAUCACCCAUGUAACGAUGAUAUAAUGUGGUCAAAACUAGAAGGGAUUGCUAACA [SameState NG2 #65] (Eterna round: R96, puzzle: Same State NG 2) | 341 nM | 216 nM | 290 nM |  |  | 
5 | AGCUAUUAAUCAGGAUAUGGUCACAUGAGGAUCACCCAUGUAACGAUGAUAUAAUGUGGUCAAGACUAGAAGGGAUUGCUAACA [SameState NG2 #66] (Eterna round: R96, puzzle: Same State NG 2) | 169 nM | 221 nM | 191 nM |  |  | 
6 | AGCUAUUAAUCAGGAUAUGGUCACAUGAGGAUCACCCAUGUGUAGAUGAUAAAAUGUGGUCUACACUAGAAGGGAUUGCUAACA [SameState NG2 #60] (Eterna round: R96, puzzle: Same State NG 2) | 524 nM | 216 nM | 236 nM |  |  | 
7 | AGCUAUUAAUCAGGAUAUGGUGACAUGAGGAUCACCCAUGUAUAGAUGAUUAAAUGUGGUCUAAACUAGAAGGGAUUACUAACA [SameState NG2 #54] (Eterna round: R96, puzzle: Same State NG 2) | 156 nM | 283 nM | 268 nM |  |  | 
8 | AGCUAUUACGAAGGAUAUUCUGACAUGAGGAUCACCCAUGUCUUCAUGAUUUAUUGUGAUCACGUGAAGAAGGUUGUACUAACA [SameState NG2 #26] (Eterna round: R96, puzzle: Same State NG 2) | 66.4 nM | 72.2 nM | 72.2 nM |  |  | 
9 | AGGACGAGCACAGGAUAUCCACGGAAAAGACGCGGAGAAGGGUGAAGUCAUGGAAAGAAAAGACAUGAGGAUCACCCAUGUAAA [Dibema] (Eterna round: R96, puzzle: Same State NG 1) | 26.2 nM | 20.5 nM | 28.4 nM |  |  | 
10 | AGGCGGAUAUCACAGGAUAUGUGCGCGUUCACAUGAGGAUCACCCAUGUAAAGGACGAGCCAAAAGCAGAAGGGUGACCACGCGA [Aedorlebe] (puzzle: Same State 2) |  |  |  | 15.3 nM | 14.8 nM | 25.4 nM
11 | AGGCUCAGACGAGGAUAUAUGUGAUCACAUGAGGAUCACCCAUGUCUCGAGCUUCGGCUCGAGACAUAGAAGGCGUCUGAGCCA [SSNG2/3-A1] (Eterna round: R96, puzzle: Same State NG 2) | 505 nM | 8.91 nM | 21.4 nM |  |  | 
12 | AGGUAACAUGAGGAUCACCCAUGUAAGGUGAACGUAGGAUAUCGAAGAGGUAGGGUAGGACGAGAAGGACGAGGAA [JR_SS1_Sub092] (puzzle: Same State 1) |  |  |  | 347 nM | 346 nM | 481 nM
13 | AGUAUUAAUGCAGGAUAUGAUUAACAUGAGGAUCACCCAUGUGGUGUUGUGAGUAAGGAGAGUGAUCAGAAGGGCAUUUUUUUU [JMF's solution 38] (Eterna round: R96, puzzle: Same State NG 2) | 414 nM | 175 nM | 502 nM |  |  | 
14 | AGUCCAGCAAGAGCUGGACAAAAGCAUGUACAUGAGGAUCACCCAUGUUCAUGUACAAGCUUUUUGCUCGUCAAAAG [Mat - hsa-mir-208a - Mod of JL - 72] (puzzle: Sensor for hsa-mir-208a) |  |  |  | 216 nM | 19.9 nM | 318 nM
15 | AGUCCAGCCUAAGCUGGACAAAAGCAUGUACAUGAGGAUCACCCAUGUUCAUGUACAAGCUUUUUGCAAGUCAAAAG [Mat - hsa-mir-208a - Mod of JL - 76] (puzzle: Sensor for hsa-mir-208a) |  |  |  | 350 nM | 28.1 nM | 664 nM
16 | AGUCCAGCCUAAGCUGGACAAAAGCAUGUACAUGAGGAUCACCCAUGUUCAUGUACAAGCUUUUUGCUCGUCAAAAG [Mat - hsa-mir-208a - Mod of JL - 68] (puzzle: Sensor for hsa-mir-208a) |  |  |  | 194 nM | 19.6 nM | 242 nM
17 | AGUCCAGCCUAAGCUGGACAAAAGCAUGUACAUGAGGAUCACCCAUGUUCAUGUACAAGCUUUUUGCUCGUCUUAAG [Mat - hsa-mir-208a - Mod of JL - 65] (puzzle: Sensor for hsa-mir-208a) |  |  |  | 864 nM | 18.7 nM | 844 nM
18 | AGUCCAGCCUGAGCUGGACAAAAGCAUGUACAUGAGGAUCACCCAUGUCAUGUACAAGCUUUUUGCACGUCUUAAAA [Mat - hsa-mir-208a - Mod of JL - D13] (puzzle: Sensor for hsa-mir-208a) |  |  |  | 1120 nM | 16.4 nM | 542 nM
19 | AGUCCAGCCUGAGCUGGACAAAAGCAUGUACAUGAGGAUCACCCAUGUCAUGUACAAGCUUUUUGCUCGUCAUAAAA [Mat - hsa-mir-208a - Mod of JL - D8] (puzzle: Sensor for hsa-mir-208a) |  |  |  | 578 nM | 14.7 nM | 651 nM
20 | AGUCCAGCCUGAGCUGGACAAAAGCAUGUACAUGAGGAUCACCCAUGUUAUGUACAAGCUUUUUGCUCGUUUUAAUA [Zipper 49 - 15] (puzzle: Sensor for hsa-mir-208a) |  |  |  | 191 nM | 13.1 nM | 199 nM
21 | AGUCCAGCCUGAGCUGGACAAAAGUAUGUACAUGAGGAUCACCCAUGUCAUGUACAAGCUUUUUGCUCGUUUUAAUA [Zipper 49 - 17] (puzzle: Sensor for hsa-mir-208a) |  |  |  | 424 nM | 33.8 nM | 517 nM
22 | AGUCCAGCGAAAGCUGGACAAAAGCAUGUACAUGAGGAUCACCCAUGUUCGUGUACAAGCUUUUUGCUCGUCUUAAA [JL mod - D95 - 5] (puzzle: Sensor for hsa-mir-208a) |  |  |  | 536 nM | 14.6 nM | 554 nM
23 | AGUCCUGAAAAGAAAAUACAGAGACAUGUACAUGAGGAUCACCCAUGUCAUGUACAAGUUCUAUGCUCGUCAUAUAA [Sensorship 20 - Jieux - Sensor for hsa-mir-208a] (puzzle: Sensor for hsa-mir-208a) |  |  |  | 22.4 nM | 15.8 nM | 21 nM
